Assay [1] has as its target T1, FX zymogen (Homo sapiens (Human), UniProt P00742 41-179; P00742 183-488).
T1 construct: Light and heavy chain of secreted FX zymogen, disulfide linked; also called Factor X zymogen; factor X zymogen
As to the kind of experiment: not stated (Table 3).

For another assay, the target named is T2, activated Factor X (FXa) (Homo sapiens (Human), UniProt P00742 41-179; P00742 235-488).
T2 construct: also called free FXa; factor Xa
In words: BLI, antibody on AHQ sensor. Background: Biolayer interferometry detects binding as a change in optical thickness at a sensor tip.

The target of assay [2] is T3, free FIXa (activated Factor IX) (human, UniProt P00740 47-191; P00740 227-461).
T3 construct: BLI antigen bought from Haematologic Technologies (HCIXA-0050); also called factor IXa
As to the kind of experiment: BLI, IgG on AHQ sensor, 100 nM antigen (the weaker partner).
Description: BLI was performed on the OctetRed94 or the Octet HTX system, according to standard procedure. Briefly, biosensors were equilibrated in Tris-buffered saline supplemented with 5 mM CaCl₂ and 0.1% bovine serum albumin (TBSFCa). Plates were then transferred to the instrument. A soak step was performed on the instrument, with incubation of the biosensors for 60 seconds in TBSFCa. […] Following this, the biosensors were incubated in TBSFCa for 60 seconds to establish baseline. Next, the biosensors were transferred to wells containing the desired antigen (100 nM in TBSFCa) and incubated for 90 seconds. Finally, the sensors were transferred to TBSFCa alone for 90 seconds incubation.

A further assay addresses T4, FXa-SM (FXa+EGR-CMK) (human, UniProt P00742 41-179; P00742 235-488, EGR-CMK covalently bound to the active site).
T4 construct: Bought from Haematologic Technologies (HCXA-EGR); also called covalently modified FXa; FXa mimic
In words: BLI; class meaning: paragraph 285.

Assay [3] addresses T5, FIXa-SM (FIXa+EGR-CMK) (human, UniProt P00740 47-191; P00740 227-461, EGR-CMK (L-Glu-Gly-Arg chloromethyl ketone) covalently bound to the active site).
T5 construct: BLI antigen bought from Haematologic Technologies (HCIXA-EGR); also called FIXa with substrate mimic
As to the kind of experiment: BLI; class meaning: paragraph 914.

Assay [4] deals with T3, free FIXa (activated Factor IX). As to the kind of experiment: BLI, 200 nM FIXa in HBS with or without 5 mM CaCl2.
For assay [5] the target is unchanged. In words: cell-based or functional assay.
The target of assay [6] is T1, FX zymogen. As to the kind of experiment: not stated (FIG. 24B).
Assay [7] has as its target T3, free FIXa (activated Factor IX). In words: not stated (FIG. 24B).
The target in assay [8] is T6, FIX zymogen (non-activatable FIX) (human, UniProt P00740 47-461).
T6 construct: also called FIXn; Factor IX zymogen
In words: not stated (FIG. 24B).

Assay [9] has as its target T3, free FIXa (activated Factor IX). As to the kind of experiment: Fab mixed 1.5:1 with FIXa, complex purified by size exclusion chromatography. For orientation: SEC sorts molecules by how far they enter the pores of the column.
Excerpt: To do this, we first cloned, expressed, and purified only the Fab portion of each of these antibodies using standard methods. Subsequently, we mixed each Fab in a 1.5:1 molar ratio with FIXa in a calcium containing buffer and purified the resulting complex from excess Fab using size exclusion chromatography.
The target in assay [10] is T5, FIXa-SM (FIXa+EGR-CMK). In words: BLI co-binding: biotinylated FIXa-SM on streptavidin sensor, then 100 nM bispecific, then 200 nM FX.
Description: Following incubation in Tris-buffered saline supplemented with 0.1% bovine serum albumin and 5 mM CaCl₂ (referred to as buffer in FIG. 21), the biosensors were then incubated with biotinylated FIXa-SM produced in-house. […] Finally, the same biosensors were incubated with 200 nM of non-biotinylated FX (non-activated Factor X).

In general, Kd refers to the equilibrium constant for the complex coming apart.

Where a chain is given by its changes, count along the chain named.

T4 sequence (P00742 41-179, chain 1 of 2): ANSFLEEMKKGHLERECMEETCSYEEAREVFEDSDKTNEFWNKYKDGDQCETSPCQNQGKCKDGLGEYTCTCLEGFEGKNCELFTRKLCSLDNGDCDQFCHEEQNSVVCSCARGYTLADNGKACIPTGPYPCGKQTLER
T4 sequence (P00742 235-488, chain 2 of 2): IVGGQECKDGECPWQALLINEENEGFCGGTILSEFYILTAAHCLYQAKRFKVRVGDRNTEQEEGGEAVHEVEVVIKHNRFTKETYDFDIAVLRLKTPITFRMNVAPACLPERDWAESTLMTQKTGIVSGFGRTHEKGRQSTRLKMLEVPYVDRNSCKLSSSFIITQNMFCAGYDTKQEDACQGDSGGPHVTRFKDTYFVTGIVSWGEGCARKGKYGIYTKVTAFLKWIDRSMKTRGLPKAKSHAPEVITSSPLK
T1 sequence (P00742 41-179, chain 1 of 2): as the sequence (P00742 41-179, chain 1 of 2) above
T1 sequence (P00742 183-488, chain 2 of 2): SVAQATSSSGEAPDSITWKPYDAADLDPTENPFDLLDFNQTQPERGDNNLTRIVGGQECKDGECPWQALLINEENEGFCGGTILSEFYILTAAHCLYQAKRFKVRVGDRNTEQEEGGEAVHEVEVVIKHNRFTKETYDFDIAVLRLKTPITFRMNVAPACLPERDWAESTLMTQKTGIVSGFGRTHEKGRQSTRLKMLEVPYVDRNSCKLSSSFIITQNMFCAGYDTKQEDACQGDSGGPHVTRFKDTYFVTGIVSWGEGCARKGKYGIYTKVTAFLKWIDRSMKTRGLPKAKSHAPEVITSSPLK
T2 sequence (P00742 41-179, chain 1 of 2): as the sequence (P00742 41-179, chain 1 of 2) above
T2 sequence (P00742 235-488, chain 2 of 2): as the sequence (P00742 235-488, chain 2 of 2) above

B1: BS-027 (antibody, V domains shown)
VH: EVQLVQSGAEVKKPGESLKISCKGSGYSFTTYWIGWVRQMPGKGLEWMGIIYPGDSDTRYSPSFQGQVTISADKSISTAYLQWSSLKASDTAMYYCARGRFRPRGRFDYWGQGTLVTVSS
VL: EIVMTQSPATLSVSPGERATLSCRASQSVSSNLAWYQQKPGQAPRLLIYGASTRATGIPARFSGSGSGTEFTLTISSLQSEDFAVYYCQQLFNHPPTFGGGTKVEIK
notes: also called anti-FX arm of BS-027025 and BS-027125; BS-027 FX homodimer
With B1, in the assay with FX zymogen [1], the Kd was determined as 20 nM.

B2: BIIB-12-917 (antibody, V domains shown)
VH: B1 VH
VL: B1 VL
notes: IgG
Consider B2, for which the binding result with activated Factor X (FXa) is reported as “no binding (tested: 250 nM)”.

B3: BIIB-9-397 (antibody, V domains shown)
VH: QVQLQESGPGLVKPSETLSLTCAVSGYSISSGYYWAWIRQPPGKGLEWIGSIYHSGSTYYNPSLKSRVTISVDTSKNQFSLKLSSVTAADTAVYYCARDVWYVGGFDPWGQGTLVTVSS
VL: DIQMTQSPSSLSASVGDRVTITCQASQDISNYLNWYQQKPGKAPKLLIYDASNLETGVPSRFSGSGSGTDFTFTISSLQPEDIATYYCQQSDDHPPTFGGGTKVEIK
notes: IgG
As for B3, the binding result in assay [2] is on record as “binds”.

B4: BIIB-9-578 (antibody, V domains shown)
VH: QLQLQESGPGLVKPSETLSLTCTVSGGSISSSSYYWGWIRQPPGKGLEWIGSISYSGSTYYNPSLKSRVTISVDTSKNQFSLKLSSVTAADTAVYYCARDKYQDYSFDIWGQGTMVTVSS
VL: DIQMTQSPSSVSASVGDRVTITCRASQGIDSWLAWYQQKPGKAPKLLIYAASSLQSGVPSRFSGSGSGTDFTLTISSLQPEDFATYYCQQANFLPFTFGGGTKVEIK
notes: IgG
As to B4, the binding result in assay [2] was “binds”.

B5: BIIB-9-631 (antibody, V domains shown)
VH: QVQLVQSGAEVKKPGASVKVSCKASGYTFTSYYMHWVRQAPGQGLEWMGIINPSGGSTSYAQKFQGRVTMTRDTSTSTVYMELSSLRSEDTAVYYCARAENRGDYEAWGQGTLVTVSS
VL: B4 VL with D30S, S31R, A91R, N92T, F93S, L94F, F96L
notes: IgG
In the case of B5, in [2], the binding result was “binds”.

B6: BIIB-12-1320 (antibody, V domains shown)
VH: QLQLQESGPGLVKPSETLSLTCTVSGGSISSSSYYWGWIRQPPGKGLEWIGSIYYSGSTYYNPSLKSRVTISVDTSKNQFSLKLSSVTAADTAVYYCARGSGLLVREHYYYYMDVWGKGTTVTVS
VL: B4 VL with V11L, G28S, D30S, W32Y, A34N, N92D, F93D, L94T, F96W
notes: IgG
With B6, in the assay with FXa-SM (FXa+EGR-CMK), the binding result is on record as “binds”.

B7: BIIB-12-894 (antibody, V domains shown)
VH: QLQLQESGPGLVKPSETLSLTCTVSGGSISSSSYYWGWIRQPPGKGLEWIGSIYYSGSTYYNPSLKSRVTISVDTSKNQFSLKLSSVTAADTAVYYCAREGAHSSMAGLDVWGQGTMVTVSS
VL: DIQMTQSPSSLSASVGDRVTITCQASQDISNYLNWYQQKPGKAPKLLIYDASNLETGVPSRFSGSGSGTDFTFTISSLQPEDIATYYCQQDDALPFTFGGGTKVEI
notes: IgG
In the case of B7, the binding result with FXa-SM (FXa+EGR-CMK) is reported as “binds”.

B8: BIIB-9-484 (antibody, V domains shown)
VH: EVQLVESGGGLVKPGGSLRLSCAASGFTFSSYSMNWVRQAPGKGLEWVSSISSSSSYIYYADSVKGRFTISRDNAKNSLYLQMNSLRAEDTAVYYCARDVGGYAGYYGMDVWGQGTTVTVSS
VL: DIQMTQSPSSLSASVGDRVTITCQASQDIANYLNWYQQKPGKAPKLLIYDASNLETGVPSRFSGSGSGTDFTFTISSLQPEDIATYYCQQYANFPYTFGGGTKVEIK
notes: IgG
Regarding B8, the binding result (in the assay with FIXa-SM (FIXa+EGR-CMK) [3]; in assay [4]) was “binds” each time.

B9: BIIB-9-1335 (antibody, V domains shown)
VH: B8 VH with S33D, N35H, S54G
VL: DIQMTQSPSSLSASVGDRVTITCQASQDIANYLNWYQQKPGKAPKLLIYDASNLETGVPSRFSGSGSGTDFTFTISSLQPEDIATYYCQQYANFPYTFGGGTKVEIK
Take B9: the “rate of ATIII inhibition of FIXa (ATIII-FIXa complex band on gel)” value in [5] was ~3 fold.

B10: BIIB-9-1336 one-armed (antibody, V domains shown)
VH: B8 VH with S30G, S33D, S54G, S55E, D62E
VL: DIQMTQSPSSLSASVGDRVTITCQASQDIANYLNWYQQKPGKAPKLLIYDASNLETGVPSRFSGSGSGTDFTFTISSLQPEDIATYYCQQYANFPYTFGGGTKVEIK
For B10, the “rate of substrate (ADG299) cleavage by FIXa (amidolytic activity)” value (“rate of substrate (ADG299) cleavage” below) in assay [5] stood at 3 fold.

B11: BS-027125 (bispecific antibody, V domains shown)
VH 1: B8 VH with S30G, S33D, S54G, S55E, D62E
VL 1: not shown
VH 2: B1 VH
VL 2: B1 VL
Regarding B11, the results for the Kd (in the assay with FX zymogen [6]; in [7]; in [8]) were 20 nM, 2 nM and 8 nM, respectively. Besides, in assay [5], the “rate of substrate (ADG299) cleavage” value was found to be 3 fold.

B12: Fab portion of BIIB-9-484 (Fab, V domains shown)
VH: B8 VH
VL: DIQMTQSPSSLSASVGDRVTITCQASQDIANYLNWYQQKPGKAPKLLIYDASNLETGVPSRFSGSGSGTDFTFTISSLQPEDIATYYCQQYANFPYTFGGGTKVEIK
notes: Fab
For B12, the binding result in assay [9] is “binds”.

B13: BIIB-9-484/BIIB-12-917 (bispecific antibody, V domains shown)
VH 1: B8 VH
VL 1: not shown
VH 2: B1 VH
VL 2: B1 VL
As to B13, the binding result with FIXa-SM (FIXa+EGR-CMK) [10] was “binds”.

B14: BIIB-9-1336 (antibody, V domains shown)
VH: B8 VH with S30G, S33D, S54G, S55E, D62E
VL: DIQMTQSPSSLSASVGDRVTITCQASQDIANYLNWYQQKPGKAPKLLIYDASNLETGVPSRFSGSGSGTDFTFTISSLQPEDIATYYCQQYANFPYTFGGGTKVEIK
Consider B14, for which, in assay [5], the “rate of ATIII inhibition of FIXa (ATIII-FIXa complex band on gel)” value was ~3 fold and the “rate of substrate (ADG299) cleavage” value was determined as 3 fold.

B15: BIIB-9-612 (antibody, V domains shown)
VH: QVQLVQSGAEVKKPGASVKVSCKASGYTFTSYYMHWVRQAPGQGLEWMGIINPSGGSTSYAQKFQGRVTMTRDTSTSTVYMELSSLRSEDTAVYYCARDAGYHWYGMDVWGQGTTVTVSS
VL: EIVLTQSPATLSLSPGERATLSCRASQSVSRYLAWYQQKPGQAPRLLIYDASNRATGIPARFSGSGSGTDFTLTISSLEPEDFAVYYCQQSSLFPLTFGGGTKVEIK
notes: IgG
In the case of B15, in assay [2], the binding result is on record as “binds”.

B16: BIIB-12-1321 (antibody, V domains shown)
VH: QVQLVQSGAEVKKPGSSVKVSCKASGGTFSSYAISWVRQAPGQGLEWMGGIIPIFGTANYAQKFQGRVTITADESTSTAYMELSSLRSEDTAVYYCARTPDTSSATDWGQGTLVTVSS
VL: B15 VL with L4M, R31S, A51S, S91F, S92T, L93N, F94L, L96Y
notes: IgG
On to B16, for which the binding result in the assay with FXa-SM (FXa+EGR-CMK) is listed as “binds”.
